Measured values from publication PMC3942355, “Unraveling Regulation of the Small Heat Shock Proteins by the Heat Shock Factor HvHsfB2c in Barley: Its Implications in Drought Stress Response and Seed Development”.

Molecular target: HvHsfB2c (Hordeum vulgare (barley) cv. Golden …, UniProt F4ZC69 1-362)
Experiment: EMSA; 100 ng poly(dI-dC); EMSA as described previously (ref 24), with 100 ng poly(dI-dC); buffer, salt, pH and temperature not given
Conditions: protein: ivt; chain copies: 3; 5' overhang 4 nt (TCGA) on both strands, 40 bp duplex

Chain of HvHsfB2c (F4ZC69 entry or part of it): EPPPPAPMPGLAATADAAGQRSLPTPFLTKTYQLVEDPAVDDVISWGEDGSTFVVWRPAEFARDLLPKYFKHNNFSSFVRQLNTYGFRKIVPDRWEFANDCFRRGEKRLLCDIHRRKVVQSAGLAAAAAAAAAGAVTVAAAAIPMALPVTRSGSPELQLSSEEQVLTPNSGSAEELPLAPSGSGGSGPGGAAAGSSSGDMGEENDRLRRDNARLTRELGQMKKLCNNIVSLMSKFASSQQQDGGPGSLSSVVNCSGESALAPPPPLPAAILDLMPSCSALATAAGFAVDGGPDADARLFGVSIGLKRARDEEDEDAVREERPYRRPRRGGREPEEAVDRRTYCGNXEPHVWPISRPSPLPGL

B1: HSE-box fragment of HvsHsp17.5-CI promoter (HSE-1/HSE-2) (dsDNA)
DNA 1: TCGAACAACCCAAAATCCAAAAAATTCCACAACCCCAAAAAGGC
DNA 2: TCGAGCCTTTTTGGGGTTGTGGAATTTTTTGGATTTTGGGTTGT
binding result: binds
